Laboratory results taken from PMC6429771, “Identification of new glutamate decarboxylases from Streptomyces for efficient production of γ-aminobutyric acid in engineered Escherichia coli” (Journal of Biological Engineering, 2019).

Tests used:
Experiment in all cases: GABA formation by Berthelot reaction, A630, Lineweaver-Burk plot
[1] = substrate: N[C@@H](CCC(=O)O)C(=O)O; assay type: biochemical, Escherichia coli; conditions: 0.01 mM PLP, 200 mM Na2HPO4-citric acid buffer pH 4.0, 37 °C, 5-100 mM MSG
Source text: GABA formation by Berthelot reaction, A630, Lineweaver-Burk plot on GadB

[2] = substrate: N[C@@H](CCC(=O)O)C(=O)O; assay type: biochemical, Streptomyces toxytricini; conditions: 0.01 mM PLP, 200 mM Na2HPO4-citric acid buffer pH 5.2, 37 °C, 5-100 mM MSG
Source text: GABA formation by Berthelot reaction, A630, Lineweaver-Burk plot on StGAD

[3] = substrate: N[C@@H](CCC(=O)O)C(=O)O; assay type: biochemical, Streptomyces chromofuscus; conditions: 0.01 mM PLP, 200 mM Na2HPO4-citric acid buffer pH 4.2, 37 °C, 5-100 mM MSG
Source text: GABA formation by Berthelot reaction, A630, Lineweaver-Burk plot on ScGAD

B1: GadB (Escherichia coli K-12) (protein)
chain: MDKKQVTDLRSELLDSRFGAKSISTIAESKRFPLHEMRDDVAFQIINDELYLDGNARQNLATFCQTWDDENVHKLMDLSINKNWIDKEEYPQSAAIDLRCVNMVADLWHAPAPKNGQAVGTNTIGSSEACMLGGMAMKWRWRKRMEAAGKPTDKPNLVCGPVQICWHKFARYWDVELREIPMRPGQLFMDPKRMIEACDENTIGVVPTFGVTYTGNYEFPQPLHDALDKFQADTGIDIDMHIDAASGGFLAPFVAPDIVWDFRLPRVKSISASGHKFGLAPLGCGWVIWRDEEALPQELVFNVDYLGGQIGTFAINFSRPAGQVIAQYYEFLRLGREGYTKVQNASYQVAAYLADEIAKLGPYEFICTGRPDEGIPAVCFKLKDGEDPGYTLYDLSERLRLRGWQVPAFTLGGEATDIVVMRIMCRRGFEMDFAELLLEDYKASLKYLSDHPKLQGIAQQNSFKHT
[1]
  Km: 35.83 ± 2.40 mM
  Vmax: 12.5 ± 0.72 µmol/min/mg
  kcat: 11 ± 0.88 s⁻¹
  kcat/Km: 310 ± 20 M⁻¹ s⁻¹

B2: StGAD (Streptomyces toxytricini) (protein)
chain: MALHKTKDVTGGDTGTDVFTTALSGRVLPKYRMPEEHSPSEAVYALLRNELLLDGNAAQNLATFCTTWSDDGVHRLMNECLDKNMVDKDEYPQTAEIEARCVNILAHLWHAPAEDGPATGCSTTGSSEAAMLGGLALKWRWRARRRAQGLPADRPNLVCGPVQVCWEKFARYFDVELRQIPLEEDATGLRPHQLAEYVDENTIGVVAILGVTYTCDYEPVADIAAALDAIQQEHGWDVPIHVDGASGGLVAPFLHPDVVWDFALPRVASINTSGHKYGLAPLGVGWVVWRTADLLPPELVFDVDYLGGDMPTFALNFSRPGGEAIAQYYLFLRLGRSGYRSVHQSCADTARFLAGEIAAMGPFTLLYDGQGALPAVSYRLTDPAAAGFTLYDLSDRLRMRGWQVPAYPLPARRDDTVIQRVLIRHGVTLDQIALLAEDMRRALDHLRAAPPTQPPTAPRSGFHH
notes: full-length ORF (1395 bp, about 464 residues, 53 kDa) in pET28a (NdeI/HindIII), His6-tagged, expressed in E. coli BL21(DE3), Ni-NTA purified
[2]
  Km: 7.67 ± 0.55 mM
  Vmax: 0.226 ± 0.01 µmol/min/mg
  kcat: 0.2 ± 0.02 s⁻¹
  kcat/Km: 26 ± 3 M⁻¹ s⁻¹

B3: ScGAD (Streptomyces chromofuscus) (protein)
chain: MPLHQGADRAADIPEEDRAELRRLSLNPFYGEADPVSEMTSAPPTQRLPEGPTPPHTAYQLVHDELMLDGNSRLNLATFVTTWMEPQAGVLMAECQDKNMIDKDEYPRTAELERRCVAMLADLWNAPDPATAVGCSTTGSSEACMLAGLALKRRWAKRNAARYPATARPNLVMGVNVQVCWEKFCTFWEVEARLVPMEGDRFHLDPQAAADLCDEDTIGVVAVLGSTFDGSYEPVAELCAVLDALQERTGLDVPVHVDGASGAMIAPFLDEDLVWDFRLPRVSSINTSGHKYGLVYPGVGWALWRSPAELPEELVFRVNYLGGDMPTFALNFSRPGAQVVAQYYTFLRLGRDGYRAVQQTARDIATTLSARIERLGGFRLLTRGDQLPVFAFTTASDVTNFDVFDVSRRLREHGWLVPAYTFPAHREDLSVLRVVCRNGFSADLAAMLVADLKRVLPELRAQERPMDRDPSAATAFHH
[3]
  Km: 23.25 ± 2.07 mM
  Vmax: 29.9 ± 2.16 µmol/min/mg
  kcat: 28.1 ± 1.99 s⁻¹
  kcat/Km: 1210 ± 90 M⁻¹ s⁻¹
